Here are results for three molecules from article PMC6191456 (Scientific Reports, 2018).

The labels stand for the following.
B1: ParE toxin of the parDE system from the broad host range plasmid RK2 (natural protein)
chain: MTAYILTAEAEADLRGIIRYTRREWGAAQVRRYIAKLEQGIARLAAGEGPFKDMSELFPALRMARCEHHYVFCLPRAGEPALVVAILHERMDLMTRLADRLKG
notes: also called GST-ParE
B2: ParD antitoxin of the parDE system from the broad host range plasmid RK2 (natural protein, UniProt P22995 1-83, looked up)
chain: MSRLTIDMTDQQHQSLKALAALQGKTIKQYALERLFPGDADADQAWQELKTMLGNRINDGLAGKVSTKSVGEILDEELSGDRA
notes: the construct is not described for the SPR; source: purified by a published protocol [30]
B3: ParD-ParE complex (preincubated ParD and ParE proteins) (complex)
chain 1: B2 chain
chain 2: B1 chain
notes: the ParD2-ParE2 make-up is cited from earlier work and not measured here; also called ParD-ParE heterotetamer; ParDE complex; source: purified ParD (200 nM) preincubated with increasing concentrations of purified ParE; copies: 2 + 2

Common to all, as to conditions: both partners purified
The target in assay [1] is T1, pre-formed ClpA-ParD complex (E. coli | plasmid RK2, UniProt P0ABH9;P22995).
T1 construct: also called ParD-ClpA complex; source: formed on the sensor chip: purified ParD (200 nM) injected onto immobilised purified ClpA
T1 sequence 1: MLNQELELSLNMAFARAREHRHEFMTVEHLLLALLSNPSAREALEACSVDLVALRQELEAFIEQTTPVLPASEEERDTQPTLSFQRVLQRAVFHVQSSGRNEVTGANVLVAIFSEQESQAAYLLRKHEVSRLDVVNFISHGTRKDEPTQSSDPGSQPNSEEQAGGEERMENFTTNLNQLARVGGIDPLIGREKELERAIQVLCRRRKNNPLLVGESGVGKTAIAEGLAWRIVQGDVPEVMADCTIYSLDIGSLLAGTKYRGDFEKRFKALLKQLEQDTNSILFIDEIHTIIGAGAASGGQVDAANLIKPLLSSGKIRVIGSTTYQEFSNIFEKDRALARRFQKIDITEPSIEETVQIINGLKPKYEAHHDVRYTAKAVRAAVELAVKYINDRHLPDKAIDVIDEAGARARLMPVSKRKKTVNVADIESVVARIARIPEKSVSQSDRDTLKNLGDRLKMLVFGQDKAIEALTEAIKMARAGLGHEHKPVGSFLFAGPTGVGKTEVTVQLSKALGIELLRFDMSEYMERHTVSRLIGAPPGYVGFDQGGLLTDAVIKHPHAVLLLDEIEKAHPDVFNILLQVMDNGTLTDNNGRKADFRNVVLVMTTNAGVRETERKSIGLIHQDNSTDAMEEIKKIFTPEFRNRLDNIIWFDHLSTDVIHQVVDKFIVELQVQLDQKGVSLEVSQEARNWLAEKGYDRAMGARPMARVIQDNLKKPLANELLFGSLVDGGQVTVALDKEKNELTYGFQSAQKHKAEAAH
T1 sequence 2: B2 chain
Put plainly: SPR; BIAcore 2000; ClpA immobilised on a CM5 chip; ParD (200 nM) injected to pre-form the ClpA-ParD complex, then ParE (200 nM) injected; ParD or buffer as controls; HBS-EP buffer with 10 mM magnesium acetate and 2 mM ATP.

Assay [2] addresses T2, ClpA, the ATPase unit of ClpAP protease (E. coli, UniProt P0ABH9 1-758).
T2 construct: ClpA, ATP-dependent unfoldase subunit of the ClpAP protease, E. coli; also called ClpA ATPase; source: purified by a published protocol [55]
T2 sequence (looked up): T1 sequence 1
Put plainly: SPR; BIAcore 2000; ParD or ParE immobilised on a CM5 chip, ClpA injected; HBS-EP buffer with 10 mM magnesium acetate and 2 mM ATP; flow 15 µl/min. On the technique in general: SPR reads the build-up and loss of mass on a sensor chip optically.

The target of assay [3] is B1. Put plainly: SPR; BIAcore 2000; ClpA immobilised on a CM5 chip; ParD (200 nM) injected to pre-form the ClpA-ParD complex, then ParE (200 nM) injected; ParD or buffer as controls; HBS-EP buffer with 10 mM magnesium acetate and 2 mM ATP.
Assay [4] has as its target T2, ClpA, the ATPase unit of ClpAP protease. Put plainly: SPR; BIAcore 2000; ClpA immobilised on a CM5 chip; mixture of ParD (200 nM) preincubated with increasing concentrations of ParE injected; HBS-EP buffer with 10 mM magnesium acetate and 2 mM ATP.

Regarding B1, the binding result in assay [1] is reported as “binds”. As for B2, the binding result in assay [2] and in assay [3] was “binds” each time. In the case of B3, the binding result in assay [4] is given as “binds”.
